Measured values: article PMC4072727, “Selection and Characterization of a DNA Aptamer That Can Discriminate between cJun/cJun and cJun/cFos”

B1: aptamer-1 (structured_DNA)
DNA: GGGAGATCACTTACGGCACCAGTCGTCGTTACTGCATTGCTCTATGGAGTATAAGCCCTGCGACAGGGCTCGGAACC
B2: aptamer-19(12-74) (structured_DNA)
DNA: TACGGCACCGTATAGTCGTACATGAACGAGTGTGAGTGTTAAGCCTTTGGCGACAGGGCTCGG
B3: AP-1 DNA (dsDNA)
DNA 1: AGGTCGTGACTCAGCGG
DNA 2: CCGCTGAGTCACGACCT
B4: aptamer-27 (structured_DNA)
DNA: GGGAGATCACTTACGGCACCAACGTCTCGTTGGTCGTTCCAGCGTTCTAGATGGATTCAGGCGACAGGGCTCGGAACC
B5: aptamer-19 (structured_DNA)
DNA: GGGAGATCACTTACGGCACCGTATAGTCGTACATGAACGAGTGTGAGTGTTAAGCCTTTGGCGACAGGGCTCGGAACC
B6: aptamer-16 (structured_DNA)
DNA: GGGAGATCACTTACGGCACCCGGAGGGTCGTTACCCACTGTTTGTTGGTATAAAGCCTGGCGACAGGGCTCGGAACC

Legend:
[1] = biological target: T1, cJun (cJun/cJun homodimer);cFos (in cJun/cFos heterodimer) (;, UniProt P05412;P01100 1-331;1-380, C269S|C154S); assay: EMSA; 0.4-6.5 nM protein; EMSA: 100 mM KCl, 4 mM MgCl2, 20 mM Tris pH 7.9, 20 mM HEPES pH 7.9, 10% glycerol, 0.1 mM DTT, 60 ug/ml BSA, 0.06% NP-40, 50 ng poly(dI-dC), on ice; 50 pM 32P-D; conditions: protein: recombinant;recombinant; tags: ;6His; copies: 1;1; label: 5'-FAM or 32P
[2] = biological target: T2, cJun (cJun/cJun homodimer) (UniProt P05412 1-331, C269S); assay: EMSA; 0.4-6.5 nM; low or sub-nanomolar; EMSA: 100 mM KCl, 4 mM MgCl2, 20 mM Tris pH 7.9, 20 mM HEPES pH 7.9, 10% glycerol, 0.1 mM DTT, 60 ug/ml BSA, 0.06% NP-40, 50 ng poly(dI-dC), on ice; 50 pM 32P-D; conditions: protein: recombinant; chain copies: 2; label: 5'-FAM or 32P
[3] = biological target: T2, cJun (cJun/cJun homodimer); assay: competition; vs Cy5-labeled AP-1 DNA; EMSA: 100 mM KCl, 4 mM MgCl2, 20 mM Tris pH 7.9, 20 mM HEPES pH 7.9, 10% glycerol, 0.1 mM DTT, 60 ug/ml BSA, 0.06% NP-40, 50 ng poly(dI-dC), on ice; 50 pM 32P-D; conditions: protein: recombinant; chain copies: 2; hairpin
[4] = biological target: T2, cJun (cJun/cJun homodimer); assay: EMSA; EMSA: 100 mM KCl, 4 mM MgCl2, 20 mM Tris pH 7.9, 20 mM HEPES pH 7.9, 10% glycerol, 0.1 mM DTT, 60 ug/ml BSA, 0.06% NP-40, 50 ng poly(dI-dC), on ice; 50 pM 32P-D; conditions: protein: recombinant, chain copies: 2
[5] = biological target: T1, cJun (cJun/cJun homodimer);cFos (in …); assay: EMSA; higher affinity than cJun/cJun; EMSA: 100 mM KCl, 4 mM MgCl2, 20 mM Tris pH 7.9, 20 mM HEPES pH 7.9, 10% glycerol, 0.1 mM DTT, 60 ug/ml BSA, 0.06% NP-40, 50 ng poly(dI-dC), on ice; 50 pM 32P-D; conditions: protein: recombinant;recombinant; tags: ;6His; copies: 1;1; label: 32P or 5'-Cy5; blunt
[6] = biological target: T2, cJun (cJun/cJun homodimer); assay: DNase I footprinting; broad protection; EMSA: 100 mM KCl, 4 mM MgCl2, 20 mM Tris pH 7.9, 20 mM HEPES pH 7.9, 10% glycerol, 0.1 mM DTT, 60 ug/ml BSA, 0.06% NP-40, 50 ng poly(dI-dC), on ice; 50 pM 32P-D; conditions: protein: recombinant; chain copies: 2; label: 32P; three stem-loops, nt 13-68

Binder	binding result [1]	binding result [2]	other results
B1	no binding	binds	
GTCCAAATCTCAGAAGAGACACACTCTTCTGAGATTTGGAC (structured_DNA) [mutant AP-1 decoy (hairpin)]			binding result [3]: no binding
B2			Kd ([4]; label: 32P, three stem-loops, nt 13-68): 0.5 nM
B3			Kd ([4]; label: 32P or 5'-Cy5, blunt): ~15 nM; binding result [5]: binds
B4	no binding	binds	
B5			binding result [6]: binds
GTCCATGACTCAGAAGAGACACACTCTTCTGAGTCATGGAC (structured_DNA) [AP-1 DNA decoy (hairpin)]			binding result [3]: binds
B6	no binding	binds	
